Assay results published in article PMC8440666, “Allosteric modulation of LRRC8 channels by targeting their cytoplasmic domains” (Nature Communications, 2021).
“And” between values parts separate entries of the source, which are not always exact repeats. Identical values can stand only once.

T1: full-length murine LRRC8A (homomeric hexameric channel) (mouse), Q80WG5
T1 chain: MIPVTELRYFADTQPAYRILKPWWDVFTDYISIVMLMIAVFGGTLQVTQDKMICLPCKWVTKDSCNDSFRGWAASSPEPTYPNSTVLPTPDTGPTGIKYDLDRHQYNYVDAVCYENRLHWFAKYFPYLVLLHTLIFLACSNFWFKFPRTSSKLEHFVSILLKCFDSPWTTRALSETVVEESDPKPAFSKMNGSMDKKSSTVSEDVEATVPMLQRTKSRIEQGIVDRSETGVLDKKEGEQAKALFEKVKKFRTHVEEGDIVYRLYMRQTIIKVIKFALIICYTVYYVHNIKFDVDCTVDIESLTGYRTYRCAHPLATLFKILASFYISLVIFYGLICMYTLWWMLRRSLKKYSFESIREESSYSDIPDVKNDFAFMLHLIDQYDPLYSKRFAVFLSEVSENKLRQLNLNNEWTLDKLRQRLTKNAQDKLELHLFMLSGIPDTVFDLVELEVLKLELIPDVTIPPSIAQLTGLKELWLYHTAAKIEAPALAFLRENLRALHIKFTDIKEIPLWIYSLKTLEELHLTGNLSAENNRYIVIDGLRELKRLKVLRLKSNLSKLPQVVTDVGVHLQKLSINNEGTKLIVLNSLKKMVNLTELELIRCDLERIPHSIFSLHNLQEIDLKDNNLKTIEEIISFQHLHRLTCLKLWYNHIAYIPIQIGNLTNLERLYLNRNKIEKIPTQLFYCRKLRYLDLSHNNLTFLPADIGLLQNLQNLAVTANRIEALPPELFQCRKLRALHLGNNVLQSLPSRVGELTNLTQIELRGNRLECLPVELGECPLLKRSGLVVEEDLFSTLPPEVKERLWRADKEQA


What was measured:
[1] = molecular target: T2, full-length murine LRRC8A (homomeric hexameric channel) (mouse, UniProt Q80WG5); experiment: cell-based or functional assay
[2] = molecular target: T3, LRR domain of LRRC8A (soluble cytoplasmic leucine-rich repeat domain of mouse LRRC8A) (Mus musculus, UniProt Q80WG5, chemically biotinylated with amine-reactive NHS-PEG4-Biotin for ELISA and SPR); experiment: SPR; Biacore T100; chemically biotinylated LRR domain immobilised on streptavidin chip (~100 RU), sybody as analyte; 20 °C, 10 mM HEPES pH 7.4, 150 mM NaCl, 0.5 mM EDTA, 0.05% Tween 20; multi-cycle kinetics (Sb1, Sb3, Sb4, Sb5) or single-cycle kinetics (Sb2); 1:1 binding model; conditions: both partners purified
T3 construct: LRR domain of mouse LRRC8A, residues 398-810 of NP_808393.1; Used without biotin in SEC and biotinylated in SPR and ELISA; also called LRRC8A-cytosolic domain (LRR); LRRC8A-LRR domain; not shown: SBP, N-terminal, cleaved; myc, N-terminal, cleaved

[3] = molecular target: T2, full-length murine LRRC8A (homomeric …); experiment: cryo-EM structure; sybody added to purified full-length LRRC8A at a molar ratio sybody/LRRC8A monomer of 1.25-1.5 (0.5 for Sb4_(0.5)), no further chromatography; C3 symmetry imposed; conditions: both partners purified
[4] = molecular target: T1, full-length murine LRRC8A (homomeric …); experiment: as above; conditions: remark: other sources report otherwise

Binder | endogenous VRAC current density in HEK293 cells expressing Sb4 compared to non-transfected cells, whole-cell patch clamp, 125 mM (about 50% increase) and 175 mM intracellular salt [1] [fold increase] | Kd [2] | koff [2] | current density of endogenous VRAC in HEK293 cells, whole-cell patch clamp, 125 mM intracellular salt, 1 µM Sb1 in the pipette solution [1] [fold reduction] | stoichiometry N [3] | endogenous VRAC current density in HEK293 cells expressing Sb5 compared to non-transfected cells, whole-cell patch clamp, 125 mM (about 50% increase) and 175 mM intracellular salt [1] [fold increase] | stoichiometry N [4] [subunits]
sybody Sb4^LRRC8A (VHH, convex library; Synthetic nanobody selected by ribosome and phage display against full-length LRRC8A; For electrophysiology expressed in HEK293 cells with C-terminal Venus-myc-SBP; source: E. coli MC1061, periplasmic expression, purified (Ni-NTA, SEC on Superdex 75)) VHH: QVQLVESGGGSVQAGGSLRLSCAASGYIYQIEYLGWFRQAPGKEREGVAALATWNGQTYYADSVKGRFTVSLDNAKNTVYLQMNSLKPEDTALYYCAAAYEGDTSPLYYEEYGYWGQGTQVTVSA | ~5 | 27 nM and 17 nM | 0.064 s⁻¹ | – | – | – | –
sybody Sb1^LRRC8A (VHH, residues 1-116 modelled; concave library; Synthetic nanobody selected by ribosome and phage display against full-length LRRC8A; N-terminal pelB leader for periplasmic expression; For electrophysiology also expressed in HEK293 cells with C-terminal Venus-myc-SBP; source: E. coli MC1061, periplasmic expression, purified (Ni-NTA, SEC on Superdex 75)) VHH: QVQLVESGGGLVQAGGSLRLSCAASGFPVGRHFMYWYRQAPGKEREWVAAIYSYGEYTEYADSVKGRFTISRDNAKNTVYLQMNSLKPEDTAVYYCYVYVGNEYWGQGTQVTVSA | – | 24 nM and 22 nM | 0.03 s⁻¹ and 0.037 s⁻¹ | ~4 | 6 sybodies per hexameric channel | – | –
sybody Sb5^LRRC8A (VHH, concave library; Synthetic nanobody selected by ribosome and phage display against full-length LRRC8A; For electrophysiology expressed in HEK293 cells with C-terminal Venus-myc-SBP; source: E. coli MC1061, periplasmic expression, purified (Ni-NTA, SEC on Superdex 75)) VHH: QVQLVESGGGLVQAGGSLRLSCAASGFPVAQEIMTWYRQAPGKEREWVAAISSIGDTTAYADSVKGRFTISRDNAKNTVYLQMNSLKPEDTAVYYCAVNVGFTYKGQGTQVTVSA | – | 175 nM and 170 nM | 0.199 s⁻¹ and 0.242 s⁻¹ | – | – | ~2.3 | –
sybody Sb3^LRRC8A (VHH, residues 1-120 modelled; loop library; Synthetic nanobody selected by ribosome and phage display against full-length LRRC8A; For electrophysiology expressed in HEK293 cells with C-terminal Venus-myc-SBP; source: E. coli MC1061, periplasmic expression, purified (Ni-NTA, SEC on Superdex 75)) VHH: QVQLVESGGGLVQAGGSLRLSCAASGFPVMNAGMYWYRQAPGKEREWVAAIESEGTSTYYADSVKGRFTISRDNAKNTVYLQMNSLKPEDTAVYYCNVKDVGDNHFPYDYWGQGTQVTVSA | – | 800 nM and 913 nM | 0.104 s⁻¹ and 0.113 s⁻¹ | – | 6 sybodies per hexameric channel | – | –
full-length murine LRRC8A (homomeric hexameric channel), Q80WG5 1-810 (natural protein) MIPVTELRYFADTQPAYRILKPWWDVFTDYISIVMLMIAVFGGTLQVTQDKMICLPCKWVTKDSCNDSFRGWAASSPEPTYPNSTVLPTPDTGPTGIKYDLDRHQYNYVDAVCYENRLHWFAKYFPYLVLLHTLIFLACSNFWFKFPRTSSKLEHFVSILLKCFDSPWTTRALSETVVEESDPKPAFSKMNGSMDKKSSTVSEDVEATVPMLQRTKSRIEQGIVDRSETGVLDKKEGEQAKALFEKVKKFRTHVEEGDIVYRLYMRQTIIKVIKFALIICYTVYYVHNIKFDVDCTVDIESLTGYRTYRCAHPLATLFKILASFYISLVIFYGLICMYTLWWMLRRSLKKYSFESIREESSYSDIPDVKNDFAFMLHLIDQYDPLYSKRFAVFLSEVSENKLRQLNLNNEWTLDKLRQRLTKNAQDKLELHLFMLSGIPDTVFDLVELEVLKLELIPDVTIPPSIAQLTGLKELWLYHTAAKIEAPALAFLRENLRALHIKFTDIKEIPLWIYSLKTLEELHLTGNLSAENNRYIVIDGLRELKRLKVLRLKSNLSKLPQVVTDVGVHLQKLSINNEGTKLIVLNSLKKMVNLTELELIRCDLERIPHSIFSLHNLQEIDLKDNNLKTIEEIISFQHLHRLTCLKLWYNHIAYIPIQIGNLTNLERLYLNRNKIEKIPTQLFYCRKLRYLDLSHNNLTFLPADIGLLQNLQNLAVTANRIEALPPELFQCRKLRALHLGNNVLQSLPSRVGELTNLTQIELRGNRLECLPVELGECPLLKRSGLVVEEDLFSTLPPEVKERLWRADKEQA | – | – | – | – | – | – | 6
sybody Sb2^LRRC8A (VHH, loop library; Synthetic nanobody selected by ribosome and phage display against full-length LRRC8A; For electrophysiology expressed in HEK293 cells with C-terminal Venus-myc-SBP; source: E. coli MC1061, periplasmic expression, purified (Ni-NTA, SEC on Superdex 75)) VHH: QVQLVESGGGLVQAGGSLRLSCAASGFPVYQAWMWWYRQAPGKEREWVAAIESEGQYTWYADSVKGRFTISRDNAKNTVYLQMNSLKPEDTAVYYCNVKDTGHTTNQYDYWGQGTQVTVSA | – | 35 nM and 60 nM | 0.003 s⁻¹ | – | 6 sybodies per hexameric channel | – | –
